Measurements as given in publication PMC11995187, “Specificity landscapes of 40 R2R3‐MYBs reveal how paralogs target different cis‐elements by homodimeric binding”.

T1: AtMYB2 homodimer (Arabidopsis thaliana, UniProt Q39028 1-273)
T1 sequence: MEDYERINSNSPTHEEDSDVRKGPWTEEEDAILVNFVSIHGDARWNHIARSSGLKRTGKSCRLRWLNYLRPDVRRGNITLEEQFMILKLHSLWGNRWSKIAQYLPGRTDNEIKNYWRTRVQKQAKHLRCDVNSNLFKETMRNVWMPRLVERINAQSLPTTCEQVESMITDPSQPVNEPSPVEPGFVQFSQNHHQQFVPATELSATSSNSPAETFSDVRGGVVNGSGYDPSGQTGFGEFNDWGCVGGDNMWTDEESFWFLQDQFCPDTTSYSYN

T2: AtMYB2 (Arabidopsis thaliana, UniProt Q39028 1-273)
T2 sequence: T1 sequence

B1: ER1a (dsDNA)
DNA 1: GATCCAATTGGTTTGGTCACCGATTTAACCTCATCAATGCCA
DNA 2: TGGCATTGATGAGGTTAAATCGGTGACCAAACCAATTGGATC
B2: ER8 (dsDNA)
DNA 1: GATCCAATTGGTTAGGTCGATCTCAACCTAACATCAATGCCA
DNA 2: TGGCATTGATGTTAGGTTGAGATCGACCTAACCAATTGGATC
B3: Ma (dsDNA)
DNA 1: GATCCAATTGACCACTACGTTAGGTAATGGACATCAATGCCA
DNA 2: TGGCATTGATGTCCATTACCTAACGTAGTGGTCAATTGGATC

How the values were obtained:
AtMYB2 homodimer = target: T1, AtMYB2 homodimer; assay: EMSA; 18-48 ng/uL protein; monomer band also seen, dimer band at 36 and 48 ng/uL; EMSA: 10 mM Tris pH 7.5, 50 mM KCl, 10 ng DNA in 20 uL, 25 C, 1 h; 6% native PAGE, 0.5x TBE, 4 C; conditions: protein: recombinant; tags: His; chain copies: 2; label: none (gel stain); (annealed oligonucleotides)
AtMYB2 = target: T2, AtMYB2; assay: EMSA; 24-48 ng/uL protein; single-molecule shift only, no dimer band; EMSA: 10 mM Tris pH 7.5, 50 mM KCl, 10 ng DNA in 20 uL, 25 C, 1 h; 6% native PAGE, 0.5x TBE, 4 C; conditions: protein: recombinant; tags: His; label: none (gel stain); (annealed oligonucleotides)

Binder | binding result (AtMYB2 homodimer) | binding result (AtMYB2)
B1 | binds | –
B2 | binds | –
B3 | – | binds
